Literature values, collected in patent US20240100071A1, “COMBINATION THERAPY FOR PATIENTS HAVING ACUTE AND/OR PERSISTENT DYSPNEA” (S-Form Pharma, priority 2020, published 2024).
Read-outs that look alike come from different tables or passages of the source.

Conditions: human plasma 24° C., cited from earlier work; for Average ADM recovery (N = 5): 10 ng ADM/ml; for Average loss of immune reactivity: MR-ADM/CT-ADM sandwich immune assay

## Human Adrenomedullin [hADM]
0 h
  Average ADM recovery (N = 5): 100
2 h
  Average ADM recovery (N = 5): 99.2
  Loss of immune reactivity %/h: 0.4 %/h
4 h
  Average ADM recovery (N = 5): 96.4
  Loss of immune reactivity %/h: 0.8 %/h
8 h
  Average ADM recovery (N = 5): 88.2
  Loss of immune reactivity %/h: 1.5 %/h
  Average loss of immune reactivity: Average: 0.9%/h
Listed as ADM
  Average loss of immune reactivity: 0.9 %/h
